US20240409599A1 (Genentech, published 2024)
Where a chain is given by its changes, count along the chain named. In names and notes the source's numbering stands.

T1: Human IL-18Rα extracellular domain (human, UniProt Q13478 22-329, biotinylated (site not stated))
T1 construct: also called IL-18 receptor
T1 sequence: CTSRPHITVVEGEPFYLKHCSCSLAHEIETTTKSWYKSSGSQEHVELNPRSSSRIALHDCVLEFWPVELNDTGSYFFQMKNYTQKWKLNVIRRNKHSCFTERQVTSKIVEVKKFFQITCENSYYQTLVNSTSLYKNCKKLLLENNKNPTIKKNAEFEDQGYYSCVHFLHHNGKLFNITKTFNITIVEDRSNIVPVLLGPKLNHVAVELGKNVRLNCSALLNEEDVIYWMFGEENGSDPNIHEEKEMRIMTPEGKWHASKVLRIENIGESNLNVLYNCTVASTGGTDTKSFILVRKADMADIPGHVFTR

T2: Mouse IL-18Rα extracellular domain (mouse, UniProt Q61098 20-326, biotinylated (site not stated))
T2 sequence: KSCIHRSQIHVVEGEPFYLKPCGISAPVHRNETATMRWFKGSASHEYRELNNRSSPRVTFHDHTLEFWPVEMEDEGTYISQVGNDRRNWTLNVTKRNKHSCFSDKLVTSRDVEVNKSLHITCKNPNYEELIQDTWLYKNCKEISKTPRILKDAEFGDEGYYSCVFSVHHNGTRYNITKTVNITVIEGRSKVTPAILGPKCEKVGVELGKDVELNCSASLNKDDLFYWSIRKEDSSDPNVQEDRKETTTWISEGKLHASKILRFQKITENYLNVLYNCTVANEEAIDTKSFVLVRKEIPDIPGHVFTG

T3: Human IL-18BP (isoform A) (human, UniProt O95998 31-194, biotinylated (site not stated))
T3 construct: also called decoy receptor
T3 sequence: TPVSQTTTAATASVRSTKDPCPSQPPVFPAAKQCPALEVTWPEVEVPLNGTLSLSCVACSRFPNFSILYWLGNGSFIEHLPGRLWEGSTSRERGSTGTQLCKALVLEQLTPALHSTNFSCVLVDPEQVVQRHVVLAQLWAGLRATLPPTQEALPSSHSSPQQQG

T4: Mouse IL-18BP (isoform D) (mouse, UniProt Q9Z0M9 29-193, biotinylated (site not stated))
T4 sequence: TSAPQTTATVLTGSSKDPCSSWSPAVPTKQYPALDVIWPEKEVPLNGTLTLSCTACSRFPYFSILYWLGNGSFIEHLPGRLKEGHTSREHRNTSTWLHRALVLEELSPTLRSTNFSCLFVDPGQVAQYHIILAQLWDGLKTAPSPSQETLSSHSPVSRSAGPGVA

B1: Human IL-18 A162C/I185C (ligand)
chain: YFGKLESKLSVIRNLNDQVLFIDQGNRPLFEDMTDSDSRDNAPRTIFIISMYKDSQPRGMAVTISVKSEKISTLSSENKIISFKEMNPPDNIKDTKSDIIFFQRSVPGHDNKMQFESSSYEGYFLCSEKERDLFKLILKKEDELGDRSCMFTVQNED
notes: Made in mammalian cells
B2: Human IL-18 hCS (ligand)
chain: B1 chain with C126A, C149I
B3: Human IL-18 S43C/S86C (ligand)
chain: B1 chain with S7C, S50C, C126A, C149I
notes: Made in mammalian cells
B4: Human IL-18 L45C/E192C (ligand)
chain: B1 chain with L9C, C126A, C149I, E156C
notes: Made in mammalian cells
B5: Human IL-18 L174C (ligand)
chain: B1 chain with S76C, C126A, L138C, C149I
notes: Made in mammalian cells
B6: Human IL-18 I107C/N123C (ligand)
chain: B1 chain with I71C, N87C, C126A, C149I
notes: Made in mammalian cells
B7: Human IL-18 S101C/T109C (ligand)
chain: B1 chain with S65C, T73C, C126A, C149I
notes: Made in mammalian cells
B8: Human IL-18 T99C/P124C (ligand)
chain: B1 chain with T63C, P88C, C126A, C149I
notes: Made in mammalian cells
B9: Human IL-18 S46C/V189C (ligand)
chain: B1 chain with S10C, C126A, C149I, V153C
notes: Made in mammalian cells
B10: Mouse wild-type mature IL-18 (ligand)
chain: NFGRLHCTTAVIRNINDQVLFVDKRQPVFEDMTDIDQSASEPQTRLIIYMYKDSEVRGLAVTLSVKDSKMSTLSCKNKIISFEEMDPPENIDDIQSDLIFFQKRVPGHNKMEFESSLYEGHFLACQKEDDAFKLILKKKDENGDKSVMFTLTNLHQS
notes: also called Mouse WT; mouse mature IL-18
B11: Mouse IL-18 A159C/V182C (ligand)
chain: B10 chain with C7S, C75S, A124C, C125S, V147C
B12: Mouse IL-18 T44C/L189C (ligand)
chain: B10 chain with C7S, T9C, C75S, C125S, L154C
notes: Made in mammalian cells
B13: Human IL-18 F57C/T81C (ligand)
chain: B1 chain with F21C, T45C, C126A, C149I
notes: Made in mammalian cells
B14: Human IL-18 S46C/I85C (ligand)
chain: B1 chain with S10C, I49C, C126A, C149I
notes: Made in mammalian cells
B15: Human IL-18 N50C (ligand)
chain: B1 chain with N14C, C126A, S127C, C149I
notes: Made in mammalian cells
B16: Human IL-18 Y37C/S91C (ligand)
chain: B1 chain with Y1C, S55C, C126A, C149I
notes: Made in mammalian cells
B17: Human IL-18 N50C/L174C (ligand)
chain: B1 chain with N14C, S76C, C126A, S127C, L138C, C149I
notes: Made in mammalian cells

Target: T1, Human IL-18Rα extracellular domain
Test: SPR, Biacore 8K, 37 C, biotinylated target on SA chip, single-cycle kinetics
Method: (§1) SPR experiments were performed using a Biacore 8K (Cytiva) at a temperature of 37° C. Biotinylated human or mouse IL-18Rα and IL-18BP were immobilized onto Biacore streptavidin sensor chip (Series S Sensor Chip SA, Cytiva) to yield an Rmax ≤50 RU. Measurements were made with five, three-fold dilutions into HBS-P+ buffer (10 mM HEPES pH 7.4, 150 mM NaCl, 0.005% surfactant P20). Interactions were evaluated using the single-cycle kinetics method and analyzed with the Biacore 8K evaluation software and fit to a 1:1 binding model.
(§2) A subset of variants were selected for analyses of binding kinetics to the L-18 receptor, IL-IM, and the decoy receptor, L-18BP, by surface plasmon resonance (SPR) (Table 8). With two exceptions, all kinetics constants are within an order of magnitude of wild-type IL-18.

Going from B1 to B2, the Kd falls from 68.1 nM to 1.7 nM (40-fold). The second binds more tightly here.

B3 and B4 are within 1.5-fold of each other in Kd: 54.5 nM for the first, 58.7 nM for the second.

Compared with B5, B6 is 2.2-fold lower in Kd: 32.8 nM for the first, 14.7 nM for the second. The second binds more tightly here.

First: B7
Second: B8
The Kd of the first is 2.3-fold higher: 147 nM for the first, 64.4 nM for the second. The second binds more tightly here.

In the case of B9, the Kd is reported as 147 nM.

Going from B1 to B2, the koff falls from 0.212 s⁻¹ to 5.6e-05 s⁻¹ (3800-fold).

B3 and B4 are within 1.5-fold of each other in koff: 0.0241 s⁻¹ for the first, 0.028 s⁻¹ for the second.

Going from B5 to B6, the koff rises from 0.011 s⁻¹ to 0.031 s⁻¹ (2.8-fold).

B7 and B8 are within 1.5-fold of each other in koff: 0.042 s⁻¹ for the first, 0.032 s⁻¹ for the second.

With B9 the koff was 0.054 s⁻¹.

First: B1
Second: B2
The kon of the first is 97-fold higher: 3.11e+06 M⁻¹ s⁻¹ for the first, 32000 M⁻¹ s⁻¹ for the second.

B3 and B4 are within 1.5-fold of each other in kon: 440000 M⁻¹ s⁻¹ for the first, 470000 M⁻¹ s⁻¹ for the second.

First: B5
Second: B6
The kon of the first is 6-fold lower: 350000 M⁻¹ s⁻¹ for the first, 2.1e+06 M⁻¹ s⁻¹ for the second.

Compared with B7, B8 is 1.8-fold higher in kon: 280000 M⁻¹ s⁻¹ for the first, 500000 M⁻¹ s⁻¹ for the second.

B9 was tested, and the kon was 360000 M⁻¹ s⁻¹.

Target: T2, Mouse IL-18Rα extracellular domain
Test: as above
Method: as §1, §2

B10 and B11 are within 1.5-fold of each other in Kd: 1.27 nM for the first, 1.11 nM for the second.

In the case of B12, the Kd is reported as 5.2 nM.

B10 and B11 are within 1.5-fold of each other in koff: 0.0097 s⁻¹ for the first, 0.0077 s⁻¹ for the second.

B12 was tested, and the koff was 0.04 s⁻¹.

B10 and B11 are within 1.5-fold of each other in kon: 7.6e+06 M⁻¹ s⁻¹ for the first, 7e+06 M⁻¹ s⁻¹ for the second.

B12 was tested, and the kon was 7.6e+06 M⁻¹ s⁻¹.

Target: T3, Human IL-18BP (isoform A)
Test: as above
Method: as §1, §2

Compared with B1, B2 is 5.4-fold higher in Kd: 0.0065 nM for the first, 0.035 nM for the second.

First: B3
Second: B4
The Kd of the first is 1.7-fold lower: 0.009 nM for the first, 0.015 nM for the second.

B5 and B13 are the same in Kd: 0.007 nM for the first, 0.007 nM for the second.

Compared with B14, B15 is 5.6-fold lower in Kd: 0.035 nM for the first, 0.0062 nM for the second.

Compared with B6, B7 is 1.6-fold higher in Kd: 0.007 nM for the first, 0.011 nM for the second. The first binds more tightly here.

First: B16
Second: B17
The Kd of the first is 5-fold higher: 0.07 nM for the first, 0.014 nM for the second. The second binds more tightly here.

Going from B8 to B9, the Kd rises from 0.008 nM to 0.018 nM (2.2-fold).

Compared with B1, B2 is 2.6-fold higher in koff: 1.89e-05 s⁻¹ for the first, 4.9e-05 s⁻¹ for the second.

B3 and B4 are within 1.5-fold of each other in koff: 3.2e-05 s⁻¹ for the first, 3.1e-05 s⁻¹ for the second.

B5 and B13 are within 1.5-fold of each other in koff: 2.1e-05 s⁻¹ for the first, 2.2e-05 s⁻¹ for the second.

Compared with B14, B15 is 4.6-fold lower in koff: 0.00012 s⁻¹ for the first, 2.6e-05 s⁻¹ for the second.

B6 and B7 are within 1.5-fold of each other in koff: 2.1e-05 s⁻¹ for the first, 2.4e-05 s⁻¹ for the second.

Compared with B16, B17 is 3.8-fold lower in koff: 0.00018 s⁻¹ for the first, 4.8e-05 s⁻¹ for the second.

Compared with B8, B9 is 1.7-fold higher in koff: 2.5e-05 s⁻¹ for the first, 4.3e-05 s⁻¹ for the second.

Going from B1 to B2, the kon falls from 2.91e+06 M⁻¹ s⁻¹ to 1.4e+06 M⁻¹ s⁻¹ (2.1-fold).

Compared with B3, B4 is 1.6-fold lower in kon: 3.4e+06 M⁻¹ s⁻¹ for the first, 2.1e+06 M⁻¹ s⁻¹ for the second.

B5 and B13 are within 1.5-fold of each other in kon: 2.93e+06 M⁻¹ s⁻¹ for the first, 3.4e+06 M⁻¹ s⁻¹ for the second.

B14 and B15 are within 1.5-fold of each other in kon: 3.3e+06 M⁻¹ s⁻¹ for the first, 4.22e+06 M⁻¹ s⁻¹ for the second.

B6 and B7 are within 1.5-fold of each other in kon: 2.9e+06 M⁻¹ s⁻¹ for the first, 2.3e+06 M⁻¹ s⁻¹ for the second.

B16 and B17 are within 1.5-fold of each other in kon: 2.6e+06 M⁻¹ s⁻¹ for the first, 3.6e+06 M⁻¹ s⁻¹ for the second.

B8 and B9 are within 1.5-fold of each other in kon: 3e+06 M⁻¹ s⁻¹ for the first, 2.3e+06 M⁻¹ s⁻¹ for the second.

Target: T4, Mouse IL-18BP (isoform D)
Test: as above
Method: as §1, §2

Going from B10 to B11, the kon rises from 650000 M⁻¹ s⁻¹ to 2.23e+06 M⁻¹ s⁻¹ (3.4-fold).

B12 was tested, and the kon was 2e+06 M⁻¹ s⁻¹.

Compared with B11, B12 is 2.8-fold lower in Kd: 14 pM for the first, 5 pM for the second. The second binds more tightly here.

Compared with B11, B12 is 2.9-fold lower in koff: 3.2e-05 s⁻¹ for the first, 1.1e-05 s⁻¹ for the second.

Target: T1, Human IL-18Rα extracellular domain
Test: SPR, Biacore 8K, 37 C, biotinylated target on SA chip
Method: as §1, §2

B15: no binding (tested: up to 81 nM).
B17: no binding (tested: up to 81 nM).
